Results as given in patent publication US9284543B2, “Neutral active soluble truncated PH20 polypeptides and uses thereof” (Halozyme, Inc., priority 2008, dated 2016).

How the values were obtained:
CHO-S cells = assay: Western blot analysis of PH20 expression in media and cells after transient expression; assay type: cell-based, Chinese Hamster; conditions: media versus cells
Outline: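 PH20 expression and solubility were judged by anti-PH20 Western blot of non-reduced media and cell fractions, with expression shown by a ~66 kDa band. Samples came from CHO-S cells transiently transfected (GeneJuice) with mutant PH20-HZ24 DNA and cultured 48-72 h. GPI-anchored mutants were cleaved with PI-PLC to release soluble protein.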

[1] = Microtiter hyaluronidase activity assay with biotinylated-hyaluronic acid; assay type: biochemical; conditions: 72 hour post transfection supernatant

| pH 5.5 Activity ([1]; Table 6) | pH 7.4 Activity ([1]; Table 6) | pH 5.5 Activity ([1]; Table 6A) | pH 7.4 Activity ([1]; Table 6A) | Molecule | Expressed in Media (CHO-S cells) |
| --- | --- | --- | --- | --- | --- |
| 0.054 Units/ml | 0 Units/ml | – | – | SPAM1-DTDA: C-terminally truncated human PH20, precursor 454 aa (SEQ ID NO:41), mature 419 aa (SEQ ID NO:93) (protein, listed as Homo sapiens, HuPH20 precursor 1-454; Mature HuPH20 36-454) chain 1: MGVLKFKHIFFRSFVKSSGVSQIVFTFLLIPCCLTLNFRAPPVIPNVPFLWAWNAPSEFCLGKFDEPLDMSLFSFIGSPRINATGQGVTIFYVDRLGYYPYIDSITGVTVNGGIPQKISLQDHLDKAKKDITFYMPVDNLGMAVIDWEEWRPTWARNWKPKDVYKNRSIELVQQQNVQLSLTEATEKAKQEFEKAGKDFLVETIKLGKLLRPNHLWGYYLFPDCYNHHYKKPGYNGSCFNVEIKRNDDLSWLWNESTALYPSIYLNTQQSPVAATLYVRNRVREAIRVSKIPDAKSPLPVFAYTRIVFTDQVLKFLSQDELVYTFGETVALGASGIVIWGTLSIMRSMKSCLLLDNYMETILNPYIINVTLAAKMCSQVLCQEQGVCIRKNWNSSDYLHLNPDNFAIQLEKGGKFTVRGKPTLEDLEQFSEKFYCSCYSTLSCKEKADVKDTDA chain 2: LNFRAPPVIPNVPFLWAWNAPSEFCLGKFDEPLDMSLFSFIGSPRINATGQGVTIFYVDRLGYYPYIDSITGVTVNGGIPQKISLQDHLDKAKKDITFYMPVDNLGMAVIDWEEWRPTWARNWKPKDVYKNRSIELVQQQNVQLSLTEATEKAKQEFEKAGKDFLVETIKLGKLLRPNHLWGYYLFPDCYNHHYKKPGYNGSCFNVEIKRNDDLSWLWNESTALYPSIYLNTQQSPVAATLYVRNRVREAIRVSKIPDAKSPLPVFAYTRIVFTDQVLKFLSQDELVYTFGETVALGASGIVIWGTLSIMRSMKSCLLLDNYMETILNPYIINVTLAAKMCSQVLCQEQGVCIRKNWNSSDYLHLNPDNFAIQLEKGGKFTVRGKPTLEDLEQFSEKFYCSCYSTLSCKEKADVKDTDA | YES |
| 1.748 Units/ml | 1.8765 Units/ml | – | – | SPAM1-YNAS: C-terminally truncated human PH20, precursor 485 aa (SEQ ID NO:15), mature 450 aa (SEQ ID NO:67) (protein, listed as Homo sapiens, mature HuPH20 36-485) LNFRAPPVIPNVPFLWAWNAPSEFCLGKFDEPLDMSLFSFIGSPRINATGQGVTIFYVDRLGYYPYIDSITGVTVNGGIPQKISLQDHLDKAKKDITFYMPVDNLGMAVIDWEEWRPTWARNWKPKDVYKNRSIELVQQQNVQLSLTEATEKAKQEFEKAGKDFLVETIKLGKLLRPNHLWGYYLFPDCYNHHYKKPGYNGSCFNVEIKRNDDLSWLWNESTALYPSIYLNTQQSPVAATLYVRNRVREAIRVSKIPDAKSPLPVFAYTRIVFTDQVLKFLSQDELVYTFGETVALGASGIVIWGTLSIMRSMKSCLLLDNYMETILNPYIINVTLAAKMCSQVLCQEQGVCIRKNWNSSDYLHLNPDNFAIQLEKGGKFTVRGKPTLEDLEQFSEKFYCSCYSTLSCKEKADVKDTDAVDVCIADGVCIDAFLKPPMETEEPQIFYNAS | YES |
| 0.0225 Units/ml | 0.054 Units/ml | – | – | SPAM1-VKDT: C-terminally truncated human PH20, precursor 452 aa (SEQ ID NO:42), mature 417 aa (SEQ ID NO:94) (protein, listed as Homo sapiens, HuPH20 precursor 1-452; Mature HuPH20 36-452) chain 1: MGVLKFKHIFFRSFVKSSGVSQIVFTFLLIPCCLTLNFRAPPVIPNVPFLWAWNAPSEFCLGKFDEPLDMSLFSFIGSPRINATGQGVTIFYVDRLGYYPYIDSITGVTVNGGIPQKISLQDHLDKAKKDITFYMPVDNLGMAVIDWEEWRPTWARNWKPKDVYKNRSIELVQQQNVQLSLTEATEKAKQEFEKAGKDFLVETIKLGKLLRPNHLWGYYLFPDCYNHHYKKPGYNGSCFNVEIKRNDDLSWLWNESTALYPSIYLNTQQSPVAATLYVRNRVREAIRVSKIPDAKSPLPVFAYTRIVFTDQVLKFLSQDELVYTFGETVALGASGIVIWGTLSIMRSMKSCLLLDNYMETILNPYIINVTLAAKMCSQVLCQEQGVCIRKNWNSSDYLHLNPDNFAIQLEKGGKFTVRGKPTLEDLEQFSEKFYCSCYSTLSCKEKADVKDT chain 2: LNFRAPPVIPNVPFLWAWNAPSEFCLGKFDEPLDMSLFSFIGSPRINATGQGVTIFYVDRLGYYPYIDSITGVTVNGGIPQKISLQDHLDKAKKDITFYMPVDNLGMAVIDWEEWRPTWARNWKPKDVYKNRSIELVQQQNVQLSLTEATEKAKQEFEKAGKDFLVETIKLGKLLRPNHLWGYYLFPDCYNHHYKKPGYNGSCFNVEIKRNDDLSWLWNESTALYPSIYLNTQQSPVAATLYVRNRVREAIRVSKIPDAKSPLPVFAYTRIVFTDQVLKFLSQDELVYTFGETVALGASGIVIWGTLSIMRSMKSCLLLDNYMETILNPYIINVTLAAKMCSQVLCQEQGVCIRKNWNSSDYLHLNPDNFAIQLEKGGKFTVRGKPTLEDLEQFSEKFYCSCYSTLSCKEKADVKDT | YES |

Continued, molecule first:

| Molecule | pH 5.5 Activity ([1]; Table 6) | pH 7.4 Activity ([1]; Table 6) | pH 5.5 Activity ([1]; Table 6A) | pH 7.4 Activity ([1]; Table 6A) | Expressed in Media (CHO-S cells) |
| --- | --- | --- | --- | --- | --- |
| SPAM1-DAVD: C-terminally truncated human PH20, precursor 456 aa (SEQ ID NO:40), mature 421 aa (SEQ ID NO:92) (protein, listed as Homo sapiens, HuPH20 precursor 1-456; Mature HuPH20 36-456) chain 1: MGVLKFKHIFFRSFVKSSGVSQIVFTFLLIPCCLTLNFRAPPVIPNVPFLWAWNAPSEFCLGKFDEPLDMSLFSFIGSPRINATGQGVTIFYVDRLGYYPYIDSITGVTVNGGIPQKISLQDHLDKAKKDITFYMPVDNLGMAVIDWEEWRPTWARNWKPKDVYKNRSIELVQQQNVQLSLTEATEKAKQEFEKAGKDFLVETIKLGKLLRPNHLWGYYLFPDCYNHHYKKPGYNGSCFNVEIKRNDDLSWLWNESTALYPSIYLNTQQSPVAATLYVRNRVREAIRVSKIPDAKSPLPVFAYTRIVFTDQVLKFLSQDELVYTFGETVALGASGIVIWGTLSIMRSMKSCLLLDNYMETILNPYIINVTLAAKMCSQVLCQEQGVCIRKNWNSSDYLHLNPDNFAIQLEKGGKFTVRGKPTLEDLEQFSEKFYCSCYSTLSCKEKADVKDTDAVD chain 2: LNFRAPPVIPNVPFLWAWNAPSEFCLGKFDEPLDMSLFSFIGSPRINATGQGVTIFYVDRLGYYPYIDSITGVTVNGGIPQKISLQDHLDKAKKDITFYMPVDNLGMAVIDWEEWRPTWARNWKPKDVYKNRSIELVQQQNVQLSLTEATEKAKQEFEKAGKDFLVETIKLGKLLRPNHLWGYYLFPDCYNHHYKKPGYNGSCFNVEIKRNDDLSWLWNESTALYPSIYLNTQQSPVAATLYVRNRVREAIRVSKIPDAKSPLPVFAYTRIVFTDQVLKFLSQDELVYTFGETVALGASGIVIWGTLSIMRSMKSCLLLDNYMETILNPYIINVTLAAKMCSQVLCQEQGVCIRKNWNSSDYLHLNPDNFAIQLEKGGKFTVRGKPTLEDLEQFSEKFYCSCYSTLSCKEKADVKDTDAVD | 0.0675 Units/ml | 0 Units/ml | – | – | YES |
| SPAM1-ADVK: C-terminally truncated human PH20, precursor 450 aa (SEQ ID NO:43), mature 415 aa (SEQ ID NO:95) (protein, listed as Homo sapiens, HuPH20 precursor 1-450) MGVLKFKHIFFRSFVKSSGVSQIVFTFLLIPCCLTLNFRAPPVIPNVPFLWAWNAPSEFCLGKFDEPLDMSLFSFIGSPRINATGQGVTIFYVDRLGYYPYIDSITGVTVNGGIPQKISLQDHLDKAKKDITFYMPVDNLGMAVIDWEEWRPTWARNWKPKDVYKNRSIELVQQQNVQLSLTEATEKAKQEFEKAGKDFLVETIKLGKLLRPNHLWGYYLFPDCYNHHYKKPGYNGSCFNVEIKRNDDLSWLWNESTALYPSIYLNTQQSPVAATLYVRNRVREAIRVSKIPDAKSPLPVFAYTRIVFTDQVLKFLSQDELVYTFGETVALGASGIVIWGTLSIMRSMKSCLLLDNYMETILNPYIINVTLAAKMCSQVLCQEQGVCIRKNWNSSDYLHLNPDNFAIQLEKGGKFTVRGKPTLEDLEQFSEKFYCSCYSTLSCKEKADVK | 0.0405 Units/ml | 0.063 Units/ml | – | – | YES |
| SPAM1-ASPS: C-terminally truncated human PH20, precursor 487 aa (SEQ ID NO:14), mature 452 aa (SEQ ID NO:66) (protein, listed as Homo sapiens, HuPH20 precursor 1-487) MGVLKFKHIFFRSFVKSSGVSQIVFTFLLIPCCLTLNFRAPPVIPNVPFLWAWNAPSEFCLGKFDEPLDMSLFSFIGSPRINATGQGVTIFYVDRLGYYPYIDSITGVTVNGGIPQKISLQDHLDKAKKDITFYMPVDNLGMAVIDWEEWRPTWARNWKPKDVYKNRSIELVQQQNVQLSLTEATEKAKQEFEKAGKDFLVETIKLGKLLRPNHLWGYYLFPDCYNHHYKKPGYNGSCFNVEIKRNDDLSWLWNESTALYPSIYLNTQQSPVAATLYVRNRVREAIRVSKIPDAKSPLPVFAYTRIVFTDQVLKFLSQDELVYTFGETVALGASGIVIWGTLSIMRSMKSCLLLDNYMETILNPYIINVTLAAKMCSQVLCQEQGVCIRKNWNSSDYLHLNPDNFAIQLEKGGKFTVRGKPTLEDLEQFSEKFYCSCYSTLSCKEKADVKDTDAVDVCIADGVCIDAFLKPPMETEEPQIFYNASPS | 0.9225 Units/ml | 1.017 Units/ml | 1.580 Units/ml | 1.134 Units/ml | YES |
